{
  "source": "patent US9957295B2",
  "about": "“Peptides inhibiting cold-inducible RNA binding protein activity” (The Feinstein Institute for Medical Research, priority 2013, dated 2018)",
  "key": {"RAW 264.7 cells": {"system": "RAW 264.7 cells", "test": "Cytokine release from RAW 264.7 cells stimulated with recombinant CIRP", "assay_type": "cell-based, murine", "settings": "for TNF-α release from RAW 264.7 cells (in words): 100 ng/ml, 4 h, or indicated concentrations and times", "protocol": "Murine macrophage-like RAW 264.7 cells were obtained from ATCC (American Type Culture Collection, Manassas, Va.), and were grown in Dulbecco's Modified Eagle's Medium (DMEM, Life Technologies, Grand Island, N.Y.) containing 10% (vol/vol) FBS (heat-inactivated at 56° C. for 30 min), 100 U/ml penicillin, 100 μg/ml streptomycin and 2 mM glutamine. Cells were re-suspended in medium and incubated in 6 or 48-well tissue-culture plates overnight in a humidified incubator (37° C., 5% CO2). In the experiments, cell monolayers were stimulated with or without recombinant CIRP at various indicated concentrations and for various indicated times. The cell-free supernatants were assayed for TNF-α by ELISA or for HMGB1 by western blot analysis.\nAs an index of the inflammatory cytokine cascade and the acute inflammatory response, supernatants from cells incubated with recombinant CIRP were measured for TNF-α and IL-6 levels in serum, tissue homogenates, and culture medium grown with macrophages using a commercially available enzyme-linked immunosorbent assay (ELISA) kits (BioSource International, Camarillo, Calif.) according to the manufacturer's instruction. To quantify TNF-α and IL-6 protein levels in serum and tissue, serum samples were harvested 4 h after hemorrhage, or 4 h after treatment with recombinant CIRP from animals by cardiac puncture at the time that the rats were sacrificed, and collected tissue samples, and carried out by the same method as above. HMGB1 levels were determined by Western blotting.\nTo address whether the extracellular CIRP could function as an inflammatory mediator, recombinant murine CIRP (rmCIRP) was expressed and purified using a bacterial expression system with more than 97% purity and confirmation by Western blotting (FIGS. 16A and B). […] J. Immunol. 174, 3306-3316 (2005); Henderson, B., et al. The extracellular signaling actions of molecular chaperones are not due to microbial contaminants. Cell Stress Chaperones 15, 123-141 (2010)). […]\nIn parallel experiments, cytokines in the supernatant of cultured RAW cells incubated with rCIRP were measured. […]"}, "[1]": {"system": "wild-type and TLR4 knockout mice", "test": "rmCIRP injection into wild-type and Tlr4−/− mice", "assay_type": "in vivo, mouse", "settings": "1 or 5 mg/kg BW, after 4 h", "protocol": "Tlr4^−/− mice were incubated with 1.5 μg/ml rmCIRP for 4 h. TNF-α levels in conditioned medium were assayed by ELISA. Data are mean±s.e.m. from three independent experiments. *P<0.05 vs. WT. In comparing the difference among wild-type and knockout mice targeting each receptor in response to rmCIRP, only TLR4-deficient macrophages lost the response for TNF-α induction, while RAGE- and TLR2-deficient macrophages maintained similar responses to wild-type macrophages (FIG. 13A). To confirm the requirement of TLR4 in mediating CIRP activity, wild-type and TLR4 knockout mice were injected with rmCIRP (1 or 5 mg/kg BW) or normal saline (vehicle). After 4 h, serum samples were collected and assayed for TNF-α and IL-6 by ELISA and HMGB1 by Western blotting as well as serum AST and ALT. Data are mean±s.e.m., n=6-9/group, *P<0.05 vs. WT no rmCIRP; #P<0.05 vs. WT with rmCIRP at 5 mg/kg. […] In contrast, these deleterious effects of rmCIRP on the wild-type mice were diminished in Tlr4^−/− mice."}},
  "data": [
    {"molecule": "rmCIRP: recombinant murine (rat sequence) His-tagged CIRP expressed in E. coli (protein) MASDEGKLFVGGLSFDTNEQALEQVFSKYGQISEVVVVKDRETQRSRGFGFVTFENIDDAKDAMMAMNGKSVDGRQIRVDQAGKSSDNRSRGYRGGSAGGRGFFRGGRSRGRGFSRGGGDRGYGGGRFESRSGGYGGSRDYYASRSQGGSYGYRSSGGSYRDSYDSYATHNEHHHHHH", "values": [
      {"measurement": "TNF-α release from RAW 264.7 cells (in words)", "setting": "RAW 264.7 cells", "result": "increased TNF-α release in a dose- and time-dependent manner"},
      {"measurement": "TNF-α release from RAW 264.7 cells (in words)", "setting": "RAW 264.7 cells; listed as rCIRP", "result": "significantly increased TNF-α release"},
      {"measurement": "increase of HMGB1 release from cultured RAW cells", "setting": "RAW 264.7 cells; 500 ng/ml, 20 h incubation, Western blot", "result": "about 6 fold"},
      {"measurement": "deleterious effects in Tlr4−/− mice", "setting": "[1]", "result": "diminished"},
      {"measurement": "serum cytokines and organ injury markers in wild-type mice", "setting": "[1]", "result": "increase of serum proinflammatory cytokines (TNF-α, IL-6, and HMGB1) and organ injury markers (AST and ALT) in a dose-dependent manner"}
    ]}
  ]
}
